# Measurements published in paper PMC10238197, “Deafness‐Associated ADGRV1 Mutation Impairs USH2A Stability through Improper Phosphorylation of WHRN and WDSUB1 Recruitment” (Advanced Science, 2023).
# T1: WHRN-PDZ1 domain, purified (mouse, UniProt Q80VW5 137-225)
# T1 construct: first PDZ domain of whirlin (WHRN), mouse; 13C,15N- or 15N-labelled for NMR; Residues up to A222 were assigned; source: purified protein
# T1 sequence: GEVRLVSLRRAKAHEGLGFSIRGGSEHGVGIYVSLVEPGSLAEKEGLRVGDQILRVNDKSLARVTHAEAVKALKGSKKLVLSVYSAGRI
# T2: WHRN-PDZ2 domain, purified (mouse)
# T2 sequence (Q80VW5 whole entry, looked up): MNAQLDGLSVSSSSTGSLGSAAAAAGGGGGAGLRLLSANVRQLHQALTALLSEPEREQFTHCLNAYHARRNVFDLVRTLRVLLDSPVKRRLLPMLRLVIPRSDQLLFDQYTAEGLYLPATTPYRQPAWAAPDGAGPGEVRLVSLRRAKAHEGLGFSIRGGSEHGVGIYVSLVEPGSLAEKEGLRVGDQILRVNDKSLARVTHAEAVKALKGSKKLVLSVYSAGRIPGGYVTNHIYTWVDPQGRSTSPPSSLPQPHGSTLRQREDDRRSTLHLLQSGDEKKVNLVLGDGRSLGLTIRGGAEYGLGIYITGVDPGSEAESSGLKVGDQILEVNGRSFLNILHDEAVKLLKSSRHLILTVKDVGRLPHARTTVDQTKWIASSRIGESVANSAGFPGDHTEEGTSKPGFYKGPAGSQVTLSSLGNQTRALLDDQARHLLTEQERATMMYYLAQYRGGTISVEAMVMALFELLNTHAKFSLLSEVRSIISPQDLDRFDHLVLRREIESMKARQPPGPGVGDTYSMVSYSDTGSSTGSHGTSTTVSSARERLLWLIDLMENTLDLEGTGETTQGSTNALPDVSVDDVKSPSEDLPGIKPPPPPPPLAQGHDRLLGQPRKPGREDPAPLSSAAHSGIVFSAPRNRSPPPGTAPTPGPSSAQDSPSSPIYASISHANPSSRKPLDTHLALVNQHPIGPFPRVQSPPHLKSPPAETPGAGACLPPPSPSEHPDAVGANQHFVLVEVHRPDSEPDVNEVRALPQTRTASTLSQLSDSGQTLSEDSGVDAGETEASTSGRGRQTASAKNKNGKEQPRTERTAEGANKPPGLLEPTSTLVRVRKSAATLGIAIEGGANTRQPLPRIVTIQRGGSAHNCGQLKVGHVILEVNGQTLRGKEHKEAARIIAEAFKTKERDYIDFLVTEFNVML
# B1: USH2Ap, 10-residue C-terminal tail peptide of USH2A harboring the PDZ-binding motif (peptide, UniProt Q2QI47 5184-5193, looked up)
# peptide: EHTAFTDTHL
# notes: also called USH2A C-terminal peptide; source: synthetic peptide
# Assays:
# [1] = biological target: WHRN with PDZ2 deleted (mouse) (UniProt Q80VW5); test: co-IP; cotransfected HEK293 cells, starved 12 h, lysed in 50 mM Tris-HCl pH 7.4, 150 mM NaCl, 1% Triton, 1% NP-40, 2 mM EDTA; anti-Flag M2 or anti-Myc antibody-conjugated agarose, 4 °C overnight; blots against the tags
# [2] = biological target: T1, WHRN-PDZ1 domain, purified; test: ITC; ITC200; purified PDZ protein 50 uM, peptide 1 mM; 20 mM Tris, 200 mM NaCl, 2 mM EDTA, pH 7.4; conditions: both partners purified
# [3] = biological target: T1, WHRN-PDZ1 domain, purified; test: SPR; BiaCore T200; WHRN-PDZ1 or WHRN-PDZ2 immobilised on a CM5 chip, peptide as analyte in serial dilutions, 120 s association and 120 s dissociation; 10 mM HEPES, 150 mM NaCl, 0.05% Surfactant P20, 0.01% DDM, 0.002% CHS, pH 7.4; conditions: both partners purified
# [4] = biological target: T2, WHRN-PDZ2 domain, purified (mouse); test: as above
molecule,measurement,setting,value
"ADGRV1 of the PDZ-truncation co-IP (Figure 6b,c) (from UniProt Q8VHN7 4333-6298) (receptor)",decrease of co-immunoprecipitated ADGRV1 against WT WHRN,[1],85%
B1,Kd,[2],28.4 ± 4.2 µM
same,Kd,[3],23 ± 2.01 µM
"RRIPIADTHL [ADGRV1p, 10-residue C-terminal tail peptide of ADGRV1 harboring the PDZ-binding motif]",Kd,[4],61.2 µM
